First the molecules themselves.
B1: Exo70-Flag [rat] / HA-Sec8 [not stated] (parent)
chain 1: MIPPQEASARRREIEDKLKQEEETLSFIRDSLEKSDQLTKNMVSILSSFESRLMKLENSIIPVHKQTENLQRLQENVEKTLSCLDHVISYYHVASDTEKIIREGPTGRLEEYLGSMAKIQKAVEYFQDNSPDSPELNKVKLLFERGKESLESEFRSLMTRHSKVISPVLVLDLISADDELEVQEDVVLEHLPESVLQDVIRISRWLVEYGRNQDFMNVYYQIRSSQLDRSIKGLKEHFRKSSSSSGVPYSPAIPNKRKDTPTKKPIKRPGRDDMLDVETDAYIHCVSAFVRLAQSEYQLLMGIIPEHHQKKTFDSLIQDALDGLMLEGENIVSAARKAIIRHDFSTVLTVFPILRHLKQTKPEFDQVLQGTAASTKNKLPGLITSMETIGAKALEDFADNIKNDPDKEYNMPKDGTVHELTSNAILFLQQLLDFQETAGAMLASQETSSSATSYNSEFSKRLLSTYICKVLGNLQLNLLSKSKVYEDPALSAIFLHNNYNYILKSLEKSELIQLVAVTQKTAERSYREHIEQQIQTYQRSWLKVTDYIAEKNLPVFQPGVKLRDKERQMIKERFKGFNDGLEELCKIQKAWAIPDTEQRDKIRQAQKSIVKETYGAFLHRYSSVPFTKNPEKYIKYRVEQVGDMIDRLFDTSA
chain 2: MAAEAAGGKYRSTVSKSKDPSGLLISVIRTLSTSDDVEDRENEKGRLEEAYEKCDRDLDELIVQHYTELTTAIRTYQSITERITNSRNKIKQVKENLLSCKMLLHCKRDELRKLWIEGIEHKHVLNLLDEIENIKQVPQKLEQCMASKHYLSATDMLVSAVESLEGPLLQVEGLSDLRLELHSKKMNLHLVLIEELHRHLYIKSTSRVVQRNKEKGKMSSHGKDASPGPLIDVSNISTPRKFLDATQYSAAGSSSVREMNLQDIKEDLDCDPEENSTLFMGILIQGLARLKKIPETVKAIKERLEQELKQIVKRSTTQVADSAYQRGESLTVDNQPRLLLELLELLFDKFNAVASAHSIVLGYLQDSVGTQPTQQEEIKLYDMADVWVKIQDVLQMLLTEYLDMKNTRTASEPSAQLSYASTGREFAAFFAKKKPQRPKNSLFKFESSSHAISMSAYLREQRRELYSRSGELQGGPDDNLIEGGGTKFVCKPGARNITVIFHPLLRFIQEIEHALGLGPAKQCLLREFLTIYIKNIFLNQVLTEINKEIEGVTKTSDPLKILANADTMKVLGVQRPLLQSTIIVEKTVQDLMNLMHDLSAYSDQFLNMVCVKLQEYKDTCSTAYRGIVQSEEKLVISASWAKDDDISRLLKSLPNWTNMAQPKQLRPKREEEEDFIRAAFGKESEVLIGNLGDKLIPPQDILRDVSDLKALANMHESLEWLAGRTKSAFSSLSASQMLSPAQESHVNMDLPPVSEQIMQTLSELAKSFQDMADRCLLVLHLEVRVHCFHYLIPLAKEGNYAIVANVESMDYDPLVVKLNKDISAMEEAMSASLQQHKFQYIFEGLGHLISCILINGAQYFRRISESGIKKMCRNIFVLQQNLTNITMSREADLDFARQYYEMLYNTADELLNLVVDQGVKYTELEYIHALTLLHRSQTGVGDQTTQNTRLQRLKEIICEQAAIKQATKDKKITTV
B2: Exo70-Flag [rat] / HA-Sec6 [not stated] (parent)
chain 1: B1 chain 1
chain 2: MCKDSACFSTMKETDLEAVATAVQRVAGMLQRPDQLDKVEQYRRREARKKASVEARLKAAIQSQLDGVRTGLSQLHNALNDVKDIQQSLADVSKDWRQSINTIESLKDVKDAVVQHSQLAAAVENLKNIFSVPEIVRETQDLIEQGALLQAHRKLMDLECSRDGLMCEQYRMDSGNKRDMTLIHGYFGSTQGLSDELAKQLWMVLQRSLVTVRRDPTLLVSVVRIIEREEKIDRRILDRKKQTGFVPPGRPKNWKEKMFAVLDRTVTTRIEGTQADTRESDKMWLVRHLEIIRKYVLDDLVIAKNLLVQCFPPHYDIFKNLLSMYHQALSIRMQDLASEDLEANEIVSLLTWVLNTYTSAEMMGNVELAPEVDVNALEPLLSPNVVSELLDTYMSTLTSNIIAWLRKALETDKKDWSKETEPEADQDGYYQTTLPAIVFQMFEQNLQVAAQISEDLKTKVLVLCLQQMNSFLSRYKEEAQLYKEEHLRNRQHPHCYVQYMVAIINNCQTFKESIISLKRKYLKPETEESLCQSQPSMDGILDAIAKEGCSSLLEEVFLDLEQHLNELMTKKWMLGSNAVDIICVTVEDYFNDFAKIKKPYKKRMTAEAHRRVVVEYLRAVMQKRISFRSAEERKEGAEKMVREAEQLRFLFRKLASGFGEDADGHCDTIVAVAEVIKLTDPSLLYLEVSTLVSKYPDIRDDHIGALLALRGDASRDMKQTIMETLEQGPMQASPNYVPIFQEIVVPSLNVAKLLK
B3: Exo70 wild type, HA-tagged and Flag-tagged copies co-expressed [rat] / itself (parent)
chain: B1 chain 1

The variants in one assay derive from B1. Nature of the assay: co-immunoprecipitation (IP: HA, blot: Flag). The note with it: with HA-Sec8; 293T cells; parent: 1.03.
As to chain 1 S47D S59D S89D, the response (relative band intensity) is 0.45.

The variants in the next assay derive from B2. Nature of the assay: co-immunoprecipitation (IP: HA, blot: Flag). The note with it: with HA-Sec6; 293T cells; parent: 1.
Take chain 1 S47D S59D S89D: the response (relative band intensity) amounted to 0.31.

Variants of B3 are the subject of the next assay. Nature of the assay: co-immunoprecipitation (IP: HA, blot: Flag). As to conditions: with itself; 293T cells; parent: 1.
For chain 1 S47D S89D, the response (relative band intensity) was 0.18.

On to chain 1 S47D S59D S89D, for which the response (relative band intensity) was found to be 0.03. On the same count and under the same terms, the result for chain 1 S59D S89D reads 0.41. Same read-out and setting: the value for chain 1 S89D was 0.46.

Staying with this assay, now noted: with itself; 293T cells; with Myc-ULK1 co-expressed; parent: 0.35.
As to chain 1 S47A S59A S89A, the response (relative band intensity) is 2.44. The same measure, in the same setting: the result for chain 1 S47A reads 0.87; that for chain 1 S59A, 1.16; that for chain 1 S89A, 1.

The same assay, now with this note: with itself; 293T cells; without Myc-ULK1; parent: 1.
As to chain 1 S47A S59A S89A, the response (relative band intensity) was 1.49. For the variant chain 1 S47A, the response (relative band intensity) came to 1.

As to chain 1 S59A, the response (relative band intensity) is 1.31. Same read-out and setting: the value for chain 1 S89A was 1.17.

These data come from publication PMC6949295 (2020).
